Source: patent US10273490B2, “Erythritol production in cyanobacteria” (Photanol B.V., priority 2014, dated 2019)
Like-named read-outs stand apart in the source and are kept apart here.

Legend:
Synechocystis PCC6803 = assay: Toxicity assay for erythritol: resistance of Synechocystis PCC6803, growth rate; format: cell-based; conditions: BG-11, pH 8.0, low light ~40 μE, 30° C.
Method: FIG. 4. Toxicity assay for erythritol. Synechocystis PCC6803 was inoculated in 10 ml BG-11 supplemented with 10 mM TES-buffer-NaOH (pH=8.0) and with 10 μg/ml kanamycine at an OD of 0.2. The culture was incubated at low light intensity (˜40 μE), 30° C. and shaking at 120 rpm. It was clearly shown (FIG. 4) that up to a concentration of 10 gr/L erythritol, cultures are not affected with respect to growth-rate.

[1] = substrate D-erythrose-4-P; cited from earlier work
[2] = substrate D-erythrose; cited from earlier work
[3] = co-factor NADPH; cited from earlier work

For `OC[C@@H](O)[C@@H](O)CO` [erythritol], the “erythritol concentration up to which cultures are not affected with respect to growth-rate” value (Synechocystis PCC6803) was at most 10 gr/L.

B1: TM1254: phosphatase from Thermotoga maritima MSB8, SEQ ID NO: 5, 6 (protein, listed as Thermotoga maritima)
chain: MEAVIFDMDGVLMDTEPLYFEAYRRVAESYGKPYTEDLHRRIMGVPEREGLPILMEALEIKDSLENFKKRVHEEKKRVFSELLKENPGVREALEFVKSKRIKLALATSTPQREALERLRRLDLEKYFDVMVFGDQVKNGKPDPEIYLLVLERLNVVPEKVVVFEDSKSGVEAAKSAGIERIYGVVHSLNDGKALLEAGAVALVKPEEILNVLKEVL
For B1, the “D-erythrose-4-P Vmax” value [1] is given as 2.63 umol/min/mg protein and the Km [1] is given as 152 µM.

B2: Gcy1p: erythrose reductase from Saccharomyces cerevisiae, SEQ ID NO: 7, 8 (protein, listed as Saccharomyces cerevisiae)
chain: MPATLHDSTKILSLNTGAQIPQIGLGTWQSKENDAYKAVLTALKDGYRHIDTAAIYRNEDQVGQAIKDSGVPREEIFVTTKLWCTQHHEPEVALDQSLKRLGLDYVDLYLMHWPARLDPAYIKNEDILSVPTKKDGSRAVDITNWNFIKTWELMQELPKTGKTKAVGVSNFSINNLKDLLASQGNKLTPAANQVEIHPLLPQDELINFCKSKGIVVEAYSPLGSTDAPLLKEPVILEIAKKNNVQPGHVVISWHVQRGYVVLPKSVNPDRIKTNRKIFTLSTEDFEAINNISKEKGEKRVVHPNWSPFEVFK
In the case of B2, the Km [2] is listed as 3400 µM.

B3: ALR1: reductase from Aspergillus niger, SEQ ID NO: 13, 14 (protein)
chain: MSLGKKVTLNSGAQIPQLGFGTWQSAPGQVGDAVYEALKAGYRHLDLATIYQNQREVAEGIKRAYKDVPGLKREDIFITSKLWNSQHDPAVVEKALDECLAELELDYLDLYLVHWPVSFTTGSELFPLVKDSSVEGGDVVINDDISIVDTWKAMTQLPKSKARTVGVSNHMIPHLEAIINATGVVPAVNQIERHPVLQSNELIEYCQKKGIHVTAYSAFGNNGFGVPLLVTRPEVKEVAESASKRLGTTVTPAQVILAWSQVGGHSVIPKSVTPSRIHENFKEVELTPEEIAKVSELGKDRRRYNTPYVANTPRWDIDIFGEEEEKPAGHKVIV
modifications: Aspergillus niger
For B3, the “D-erythrose Kcat” value [2] is listed as 25 s⁻¹ and the Km [2] is listed as 139 µM.

B4: GLD1: reductase from Hypocrea jecorina (Trichoderma reesei), SEQ ID NO: 11, 12 (protein, listed as Hypocrea jecorina)
chain: MSSGRTVTLNTGYKIPQIGYGTWQAAPGEVGAGVFEALKVGYRHLDLAKVYGNQKEVGEGIKKALAEVPGLKREDIFITSKLWNNSHKPEDVEPALDDTLAELGLDYLDLYLIHWPVAFAPGADLFPKSEDGSEVQLNQNVSIVQTWKAMTELPKSKVRSVGVSNFTIEHLDAVIEATGVVPAVNQIERHPRLPNQPLIDYCAKKGIIITAYSAFGNNTKGLPLLVSSDEVKAVADNLSKKQGKTVTPAQVILAWSQIGGHTVIPKSVTKARIAENFQEVELDDEAIAALNKLGEKPQRFNIPYTYKPRWNINLFNTEEEKAAAHTAVIKL
For B4, the Km [2] is given as 16 to 134 µM.

B5: YidA: phosphatase from Escherichia coli, SEQ ID NO: 1, 2 (protein, listed as Escherichia coli)
chain: MAIKLIAIDMDGTLLLPDHTISPAVKNAIAAARARGVNVVLTTGRPYAGVHNYLKELHMEQPGDYCITYNGALVQKAADGSTVAQTALSYDDYRFLEKLSREVGSHFHALDRTTLYTANRDISYYTVHESFVATIPLVFCEAEKMDPNTQFLKVMMIDEPAILDQAIARIPQEVKEKYTVLKSAPYFLEILDKRVNKGTGVKSLADVLGIKPEEIMAIGDQENDIAMIEYAGVGVAMDNAIPSVKEVANFVTKSNLEDGVAFAIEKYVLN
For B5, the “D-erythrose-4-P Kcat” value [1] is given as 19 s⁻¹ and the Km [1] is given as 19 µM.

B6: ErCm: reductase from Candida magnolia JH110, SEQ ID NO: 9, 10 (protein, listed as Candida magnoliae)
chain: MSSTYTLTRLSAPSMVLNSGSQIPAVGYGLWKQQGSEAKDSVRCAIESGYRHLDCATAYQNHKEVGQAIREAGVPRDELWITSKVWGTHFDNPEEGLDDILEELGVEYLDLLLLHLPVAFKRNPEDPKQLRGLPVDHDMKYADVWARMEKLPKSKVRNIGVSNLTVRALDELLQTAKVTPAVNQVEMHPNLPQKKLLDYCKSKGIVVQAYSPLAQGQHENPVVTDIADDLGVSPAQVVLSWGALRGTNILPKSSTPSRIRENLELIQLSDDHMRRIDALARR
For B6, the Km [3] is listed as 16 µM, the “NADPH Kcat” value [3] is listed as 48 s⁻¹ and the “D-erythrose Kcat” value [2] is listed as 7.6 s⁻¹. For the same molecule, the Km [2] was 8500 µM.
